This passage reports Kd, IC50 and EC50 results from patent US20260250363A1.

Where two headings read alike, the source gives them in different places.

The target of experiment [1] is SARS-CoV-2 +E484K B.1.1.7 Spike Protein (R&D, Cat. #10824-CV) (SARS-CoV-2) (UniProt P0DTC2). Briefly: BLI (ForteBio), mAb on AHC sensor, spike in solution.
Experiment [2] shares this target. The experiment can be described thus: competition ELISA: blocks biotin-ACE2 binding to coated spike. In general terms: ELISA stands for enzyme-linked immunosorbent assay.
For experiment [3] the target is unchanged. The experiment can be described thus: direct ELISA on coated spike.
The target is the same in experiment [4]. The experiment can be described thus: competition ELISA: blocks biotin-ACE2 binding to coated spike. This is another data set of the same source.

As to Casirivimab (antibody), the equilibrium dissociation constant (Kd) – broadly, a measure of binding affinity in units of concentration – in experiment [1] was 3.4 nM. The half-maximal inhibitory concentration (IC50) (usually the concentration that inhibits the measured activity by half) in experiment [2] came to 3.3 nM; in experiment [4], 3.13 nM. Besides, the EC50 (as a rule, the concentration giving half of the maximal effect) in experiment [3] was found to be 0.0584 nM.
Turning to Imdevimab (antibody), the Kd in experiment [1] amounted to 0.831 nM. In experiment [3], this substance yielded an EC50 of 0.0505 nM.
